Reference: patent US20050182242A1, “Global analysis of protein activities using proteome chips” (priority 2001, published 2005)

What was measured:
total yeast genomic DNA = assay: Yeast proteome chip probed with labeled genomic DNA; type: binding; settings: Cy3-labeled genomic DNA, visual inspection
Excerpt: Protein-DNA and protein-RNA interactions are important for many fundamental biological functions such as transcription regulation, chromosome segregation and maintenance, and RNA transport and processing (Williamson, 2000, Nat. Struct. Biol. 7(10):834-7). To explore the possibility of using a proteome chip to identify proteins that bind to DNA or RNA molecules, total yeast genomic DNA was labeled using Cy3-CTP and Klenow fragment, and polyA^+ was labeled using a biotinylated psoralen-derivative (31). Each probe was incubated with a different proteome chip (FIG. 3A).
The protein-nucleic acid interaction was assayed as follows. The nucleic acid robes were labeled as described by Winzeler et al. (1999, Science 285:901). Blocked proteome chips were washed three to five times in PBS buffer, and the extra liquid on the glass surface was removed by tapping the slides vertically on a KIMWIPE™. 200 μl of labeled nuclei acid probe ([…] poly(dC/dG); 100-300 mM NaCl; 50-300 mM HEPES, pH 7.0-8.5; 10 mM MgCl2) was added to the proteome chip and immediately covered by a hydrophobic plastic cover slip (GRACE BIO-LABS™, USA). After trapped air bubbles were removed, the chip was incubated in a humidity chamber in the dark at room temperature (“RT”) for one hour. To remove the cover slip, the chip was immersed into large volume of PBS buffer(>50 ml), so that the slip would float away. The chip was then moved to a second PBS bath (>50 ml) and washed 3×5 min with shaking in the dark at RT. To completely remove the liquid on the chip, the chip was spun to dryness at 1500-2000 rpm for 5-10 min at RT.

[1] = test system: phosphatidylcholine (PC) liposomes; assay: Yeast proteome chip probed with PC liposomes; settings: liposome binding signal on yeast proteome chip, Cy3-streptavidin detection
Method in brief: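 Yeast proteome chips incubated 1 h at RT with sonicated liposomes of PC containing 1% (w/w) biotin-DHPE, plus 5% (w/w) of the indicated phosphoinositide where applicable. After PBS washes, bound liposomes detected with Cy3- or Cy5-streptavidin (>30 min, RT, dark) and fluorescence scanned.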

PI(3,4,5)P3 liposomes = assay: Yeast proteome chip probed with PI(3,4,5)P3 liposomes; settings: liposome binding signal on yeast proteome chip, Cy3-streptavidin detection
PI(3,4)P2 liposomes = assay: Yeast proteome chip probed with PI(3,4)P2 liposomes; settings: liposome binding signal on yeast proteome chip, Cy3-streptavidin detection
PI(3)P liposomes = assay: Yeast proteome chip probed with PI(3)P liposomes; settings: liposome binding signal on yeast proteome chip, Cy3-streptavidin detection
PI(4,5)P2 liposomes = assay: Yeast proteome chip probed with PI(4,5)P2 liposomes; settings: liposome binding signal on yeast proteome chip, Cy3-streptavidin detection
PI(4)P liposomes = assay: Yeast proteome chip probed with PI(4)P liposomes; settings: liposome binding signal on yeast proteome chip, Cy3-streptavidin detection
[2] = test system: phospholipids (phosphatidylinositols vs phosphatidylcholine); assay: Proteome chip lipid-binding screen, overall analysis of six liposomes (PI/PC specificity); settings: compared with phosphatidylcholine
Excerpt: FIGS. 4A-4D. Analysis of the phosphatidylinositol-binding proteins. To determine the phosphatidylinositol (“PI”)-binding specificity of 150 positive proteins, their binding signals were normalized against the corresponding binding signals of phosphatidylcholine (“PC”). Based on the ratios (“PI/PC”), the proteins were grouped into four categories: (A) 30 strong and specific, (B) 43 strong and nonspecific, (C) 19 weak and specific, and (D) 58 weak and nonspecific phosphatidylinositol-binding proteins. The intensity represents the PI/PC signal ratio as shown by the scale in the figure. The column, labeled “10^n” to the right of the PI/PC binding ratios indicates the maximum binding signal intensity (open boxes) and its confidence interval (solid horizontal lines); the numbers indicate the log of the values. Boxes in the three columns to the right of the confidence interval column indicate membrane-associated proteins (“Membrane”), kinases (“Kinase”), and uncharacterized ORFs (“Unknown”), respectively.
To identify PI-binding proteins in yeast, liposomes were used as probes because the liposome provides the most relevant physiological condition to assay the interactors. Six types of liposomes were used. Each contains phosphatidylcholine (“PC”) with 1% (w/w) N-(biotinoyl)-1,2-dihexadecanoyl-sn-glycero-3-phosphoethanolamine, triethylammonium salt (biotin DHPE). The biotinylated lipid serves as a label that can be detected by Cy3-streptavidin (21). In addition to PC, the five other liposomes contain either 5% (w/w) PI(3)P, PI(4)P, PI(3,4)P2, PI(4,5)P2, or PI(3,4,5)P3 (FIG. 3A).
The protein-liposome interaction was assayed as follows. Appropriate amounts of each lipid in chloroform were mixed and dried under nitrogen. The lipid mixture was resuspended in TBS buffer by vortexing. The liposomes were created by sonication. Blocked proteome chips were washed three to five times in PBS buffer, and the extra liquid on the glass surface was removed by tapping the slides vertically on a KIMWIPE™. 200 μl of liposome solution was added to the proteome chip and immediately covered by a hydrophobic plastic cover slip (GRACE BIO-LAB™, USA). After trapped air bubbles were removed, the chip was incubated in a humidity chamber at RT for one hour. To remove the cover slip, the chip was immersed into large volume of PBS buffer (50 ml), so that the slip would float away. The chip was then moved to a second PBS bath (>50 ml) and washed 3×5 min with shaking at RT. After removing extra liquid on the surface of the chip, about 100 μl of Cy3 or Cy5 conjugated streptavidin (PIERCE™, USA; 1:2000 to 1:4000 dilution) was added to the surface and covered by a hydrophobic plastic cover slip (GRACE BIO-LABS™, USA). The chip was incubated for greater than 30 min in the dark at RT. The chip was then washed as described above. To completely remove the liquid on the chip, the chip was spun to dryness at 1500-2000 rpm for 5-10 min at RT.
An algorithm was devised to assist in the identification of positive signals (42). Fifty-two (35%) of the interactors (i.e., lipid-binding proteins) correspond to uncharacterized proteins thus ascribing the first biochemical activities to those proteins.
The interactors (i.e., phospholipid-binding proteins) were grouped in several ways (42). First, the interactors were sorted according to whether they bound lipids strongly or weakly, based on the phospholipid-binding signal relative to the amount of GST (FIG. 4). Slightly more (72%) of the strong lipid binding proteins (FIGS. 4A and 4B) were characterized relative to the weakly binding proteins (54%) (FIGS. 4C and 4D). Many of the strong lipid-binding proteins are membrane-associated, or are predicted to be associated with membranes, whereas fewer of the weaker binding proteins appear to be associated with membranes (FIG. 4, “Membrane” column). […] Moreover, thirteen of the seventeen protein kinases bind very strongly to the phospholipids. […]

Molecule	binding of genomic DNA probe (total yeast genomic DNA)	PC [1]	PI(3, 4, 5)P3 (PI(3,4,5)P3 liposomes)	PI(3, 4)P2 (PI(3,4)P2 liposomes)	PI(3)P (PI(3)P liposomes)	PI(4, 5)P2 (PI(4,5)P2 liposomes)	PI(4)P (PI(4)P liposomes)	preferential binding of particular phosphatidylinositol lipids [2]
Ils1p: isoleucyl-tRNA synthetase (protein, UniProt P09436 1-1072, looked up) Isoleucine--tRNA ligase, …: MSESNAHFSFPKEEEKVLSLWDEIDAFHTSLELTKDKPEFSFFDGPPFATGTPHYGHILASTIKDIVPRYATMTGHHVERRFGWDTHGVPIEHIIDKKLGITGKDDVFKYGLENYNNECRSIVMTYASDWRKTIGRLGRWIDFDNDYKTMYPSFMESTWWAFKQLHEKGQVYRGFKVMPYSTGLTTPLSNFEAQQNYKDVNDPAVTIGFNVIGQEKTQLVAWTTTPWTLPSNLSLCVNADFEYVKIYDETRDRYFILLESLIKTLYKKPKNEKYKIVEKIKGSDLVGLKYEPLFPYFAEQFHETAFRVISDDYVTSDSGTGIVHNAPAFGEEDNAACLKNGVISEDSVLPNAIDDLGRFTKDVPDFEGVYVKDADKLIIKYLTNTGNLLLASQIRHSYPFCWRSDTPLLYRSVPAWFVRVKNIVPQMLDSVMKSHWVPNTIKEKRFANWIANARDWNVSRNRYWGTPIPLWVSDDFEEVVCVGSIKELEELTGVRNITDLHRDVIDKLTIPSKQGKGDLKRIEEVFDCWFESGSMPYASQHYPFENTEKFDERVPANFISEGLDQTRGWFYTLAVLGTHLFGSVPYKNVIVSGIVLAADGRKMSKSLKNYPDPSIVLNKYGADALRLYLINSPVLKAESLKFKEEGVKEVVSKVLLPWWNSFKFLDGQIALLKKMSNIDFQYDDSVKSDNVMDRWILASMQSLVQFIHEEMGQYKLYTVVPKLLNFIDELTNWYIRFNRRRLKGENGVEDCLKALNSLFDALFTFVRAMAPFTPFLSESIYLRLKEYIPEAVLAKYGKDGRSVHFLSYPVVKKEYFDEAIETAVSRMQSVIDLGRNIREKKTISLKTPLKTLVILHSDESYLKDVEALKNYIIEELNVRDVVITSDEAKYGVEYKAVADWPVLGKKLKKDAKKVKDALPSVTSEQVREYLESGKLEVAGIELVKGDLNAIRGLPESAVQAGQETRTDQDVLIIMDTNIYSELKSEGLARELVNRIQKLRKKCGLEATDDVLVEYELVKDTIDFEAIVKEHFDMLSKTCRSDIAKYDGSKTDPIGDEEQSINDTIFKLKVFKL	identified							
Sqt1p: yeast protein that interacts with Rp110p (protein, UniProt P35184 1-431, looked up) Ribosome assembly protein SQT1: MEPQEEFITTEEVEQEIVPTVEVEQDVPVDIEGENDDDDEMMNDDEEALEVDMSNNSLTYFDKHTDSVFAIGHHPNLPLVCTGGGDNLAHLWTSHSQPPKFAGTLTGYGESVISCSFTSEGGFLVTADMSGKVLVHMGQKGGAQWKLASQMQEVEEIVWLKTHPTIARTFAFGATDGSVWCYQINEQDGSLEQLMSGFVHQQDCSMGEFINTDKGENTLELVTCSLDSTIVAWNCFTGQQLFKITQAEIKGLEAPWISLSLAPETLTKGNSGVVACGSNNGLLAVINCNNGGAILHLSTVIELKPEQDELDASIESISWSSKFSLMAIGLVCGEILLYDTSAWRVRHKFVLEDSVTKLMFDNDDLFASCINGKVYQFNARTGQEKFVCVGHNMGVLDFILLHPVANTGTEQKRKVITAGDEGVSLVFEVPN	tested positive							
THI13: yeast protein involved in nucleotide metabolism, GST-HisX6 fusion (protein, UniProt Q07748 1-340, looked up, GST-His6 tag, yeast protein involved in nucleotide metabolism, GST-HisX6 fusion) 4-amino-5-hydroxymethyl-2-meth …: MSTDKITFLLNWQPTPYHIPIFLAQTKGYFKEQGLDIAILEPTNPSDVTELIGSGKVDMGLKAMIHTLAAKARGFPVTSVASLLDEPFTGVLYLKGSGITEDFQSLKGKKIGYVGEFGKIQIDELTKHYGMKPEDYTAVRCGMNVAKYIIEGKIDAGIGIECMQQVELEEYLAKQGRPASDAKMLRIDKLACLGCCCFCTVLYICNDEFLKKNPEKVRKFLKAIKKATDYVLADPVKAWKEYIDFKPQLNNDLSYKQYQRCYAYFSSSLYNVHRDWKKVTGYGKRLAILPPDYVSNYTNEYLSWPEPEEVSDPLEAQRLMAIHQEKCRQEGTFKRLALPA	bind the DNA probe	43.14	39.04	75.66	13.75	64.67	55.09	
Ypt31p: yeast protein with GTP-binding activity (protein, UniProt P38555 2-223, looked up) GTP-binding protein YPT31/YPT8: SSEDYGYDYDLLFKIVLIGDSGVGKSNLLSRFTKNEFNMDSKSTIGVEFATRTLEIDGKRIKAQIWDTAGQERYRAITSAYYRGAVGALIVYDISKSSSYENCNHWLSELRENADDNVAVGLIGNKSDLAHLRAVPTEESKTFAQENQLLFTETSALNSENVDKAFEELINTIYQKVSKHQMDLGDSSANGNANGASAPNGPTISLTPTPNENKKANGNNCC	bind the DNA probe							
ATP1: yeast alpha subunit of F1-ATP synthase, GST-HisX6 fusion (protein, UniProt P07251 36-545, looked up, GST-His6 tag, yeast alpha subunit of F1-ATP synthase, GST-HisX6 fusion) ATP synthase subunit alpha, …: ASTKAQPTEVSSILEERIKGVSDEANLNETGRVLAVGDGIARVFGLNNIQAEELVEFSSGVKGMALNLEPGQVGIVLFGSDRLVKEGELVKRTGNIVDVPVGPGLLGRVVDALGNPIDGKGPIDAAGRSRAQVKAPGILPRRSVHEPVQTGLKAVDALVPIGRGQRELIIGDRQTGKTAVALDTILNQKRWNNGSDESKKLYCVYVAVGQKRSTVAQLVQTLEQHDAMKYSIIVAATASEAAPLQYLAPFTAASIGEWFRDNGKHALIVYDDLSKQAVAYRQLSLLLRRPPGREAYPGDVFYLHSRLLERAAKLSEKEGSGSLTALPVIETQGGDVSAYIPTNVISITDGQIFLEAELFYKGIRPAINVGLSVSRVGSAAQVKALKQVAGSLKLFLAQYREVAAFAQFGSDLDASTKQTLVRGERLTQLLKQNQYSPLATEEQVPLIYAGVNGHLDGIELSRIGEFESSFLSYLKSNHNELLTEIREKGELSKELLASLKSATESFVATF		0.29	26.44	11.93		46.38	28.09	preferentially binds PI(3,4)P2
